Experimental data from patent US20220064321A1.

Key:
[1] = molecular target: CD16a on effector cells NK92MI-CD16a (UniProt P08637); assay: cell-based or functional assay
[2] = molecular target: FcγRIIIa(V158) (Sino Biological Inc, 10389-H08C1) (UniProt P08637); assay: binding ELISA; His-tagged FcγRIIIa captured by anti-His antibody, IgG pre-complexed with goat F(ab')2 anti-human-κ, HRP anti-human F(ab')2 detection
Sequence of FcγRIIIa(V158) (Sino Biological Inc, 10389-H08C1) (P08637 17-208 F176V limits assumed): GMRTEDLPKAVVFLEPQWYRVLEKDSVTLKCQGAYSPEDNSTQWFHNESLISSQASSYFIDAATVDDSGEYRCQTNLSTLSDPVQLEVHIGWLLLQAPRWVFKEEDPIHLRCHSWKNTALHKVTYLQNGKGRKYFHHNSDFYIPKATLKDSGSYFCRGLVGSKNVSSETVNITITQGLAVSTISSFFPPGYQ

Sequence of CD16a on effector cells NK92MI-CD16a (P08637 17-254 limits assumed): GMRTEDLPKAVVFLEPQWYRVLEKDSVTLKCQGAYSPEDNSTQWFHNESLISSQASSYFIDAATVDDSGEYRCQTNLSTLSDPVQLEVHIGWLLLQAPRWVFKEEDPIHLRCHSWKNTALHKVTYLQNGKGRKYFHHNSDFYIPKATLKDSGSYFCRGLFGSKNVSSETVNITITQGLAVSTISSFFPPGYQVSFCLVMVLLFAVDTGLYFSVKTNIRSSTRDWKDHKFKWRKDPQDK

ADCC Target cell: Daudi, EC50 [1]: 4.53 ng/mL | ADCC Target cell: Raji, EC50 [1]: 0.345 ng/mL | EC50 [2]: 194 ng/mL
Substance: RITUXAN® (rituximab) (antibody)
